Measurements as given in paper PMC8113403, “Assembly of Natively Synthesized Dual Chromophores Into Functional Actinorhodopsin” (Frontiers in Microbiology, 2021).

Tested on: Asp85
Assay: UV-vis
Settings: not stated (0.02% DDM solution; pH adjusted with small amounts of HCl or NaOH); Purified, detergent-solubilised holoprotein with all-trans-retinal; no carotenoid; light adaptation not stated

| Substance | pKa |
| --- | --- |
| Actinorhodopsin ActR-13023 E96Q (Candidatus Aquiluna sp. IMCC13023; E96Q) | 7.67 |
| Actinorhodopsin ActR-13023 (Candidatus Aquiluna sp. IMCC13023) | ≈ 7.81 |
